Data from US20080261863A1, “Pegylation of Vasoactive Intestinal Peptide (Vip) / Pituitary Adenylate Cyclase Activating Peptide (Pacap) Receptor 2 (Vpac2) Agonists and Methods of Use” (priority 2004, published 2008).

Target: VPAC2 receptor (human) (UniProt P41587)
Experiment: cell-based or functional assay

VPAC2 receptor (human), sequence (P41587 24-438): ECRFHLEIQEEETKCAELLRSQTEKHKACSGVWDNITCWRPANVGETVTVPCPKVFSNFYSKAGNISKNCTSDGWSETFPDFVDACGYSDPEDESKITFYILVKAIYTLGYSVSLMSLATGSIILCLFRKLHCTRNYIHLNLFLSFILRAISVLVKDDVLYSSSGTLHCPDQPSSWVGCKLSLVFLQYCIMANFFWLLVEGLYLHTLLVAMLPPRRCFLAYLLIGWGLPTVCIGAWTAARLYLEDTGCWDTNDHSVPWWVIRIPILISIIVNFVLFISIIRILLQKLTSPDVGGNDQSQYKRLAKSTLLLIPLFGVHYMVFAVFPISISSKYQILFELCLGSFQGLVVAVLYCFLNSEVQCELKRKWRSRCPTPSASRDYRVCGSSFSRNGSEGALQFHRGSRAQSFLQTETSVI

PACAP-27 (from UniProt P18509 132-158) (peptide)
EC50 (nM), cAMP SPA, VPAC2 agonist activity: 0.09 nM
